From US20080166698A1 (Genentech, published 2008)

Biological target: T1, recombinant human DAF (human, UniProt P08174 35-353, limits assumed)
T1 construct: also called decay accelerating factor; CD55
T1 sequence (looked up): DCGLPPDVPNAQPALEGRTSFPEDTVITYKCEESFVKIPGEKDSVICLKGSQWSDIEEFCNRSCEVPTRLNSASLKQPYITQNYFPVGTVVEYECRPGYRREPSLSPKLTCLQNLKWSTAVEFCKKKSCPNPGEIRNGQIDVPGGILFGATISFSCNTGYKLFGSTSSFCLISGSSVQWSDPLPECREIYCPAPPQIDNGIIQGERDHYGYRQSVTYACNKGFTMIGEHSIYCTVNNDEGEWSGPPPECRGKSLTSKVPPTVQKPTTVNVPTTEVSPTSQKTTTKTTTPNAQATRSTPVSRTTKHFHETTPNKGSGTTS
Assay: SPR (BIACORE 1000), recombinant human DAF on a CM-5 chip, LU30 scFv injected
Description: Affinity Measurements. Kinetic measurements were made by surface plasmon resonance using a BIACORE 1000™ Biosensor (Biacore, AB Uppsala, Sweden). CM-5 chips were functionalized with 350 response units recombinant human DAF in 10 mM sodium acetate (pH 4.6) or 8,000 response units bovine serum albumin as a negative control. The DAF-derivatized chip was saturated with LU30 scFv (25-100 nM) by injecting this fragment at 10 :l/min in PBS containing 0.5% (w/v) bovine serum albumin and 0.05% (v/v) TWEEN 20™. The resultant sensorgrams were analyzed using BIAEVALUATION™ software 3.0.

B1: LU30 scFv (scFv, V domains shown)
VH: QVKLQESGGGLVQPGGSLKLSCAASGFTFSGYGMSWIRQTPDKRLEWVATINSGGSYTYYSDSVKGRFTISRDNVKNTLYLQMSSLKSEDTAMYYCARRNGTLYYYLMDYWGRGTLVTVSS
VL: QSVLTQPPSASGSPGQSVTISCTGTSSDVGGYNYVSWYQQHPGKAPKFMIYDVSKRPSGVSNRFSGSKSGNTASLTISGVQAEDEADYYCSSYTSASTVIFGGGTKLTVL
notes: Human scFv from a naive phage library, secreted from E. coli and purified through its His tag; also called clone LU30; LU30 scFv fragment; not shown: scFv linker between the domains, domain order, and the His tag
B1 was tested, and the Kd was 13 nM, the koff was 0.0045 s⁻¹ and the kon was 340000 M⁻¹ s⁻¹.
